First the molecules themselves.
B1: Metastasis-associated protein MTA3, residues 265 to 317; numbered along this chain, Q9BTC8 (parent)
chain: RDEMEEWSASEASLFEEALEKYGKDFNDIRQDFLPWKSLTSIIEYYYMWKTTD
B2: Ras GTPase-activating protein 1, residues 281 to 341; numbered along this chain, P20936 (parent)
chain: RRRVRAILPYTKVPDTDEISFLKGDMFIVHNELEDGWMWVTNLRTDEQGLIVEDLVEEVGR

± gives the uncertainty stated by the source.

Variants of B1 are the subject of one series. As to the kind of experiment: abundance fitness (aPCA) (normalised: wild type 0, dead -1); higher = more abundant; growth selection in yeast, the domain comes from the species named. The conditions noted are these: Homo sapiens.
On to RDEEEEWSASEASLFEEALEKYGKDFNDIRQDFLPWKSLTSIIEYYYMWKTTD [M4E], for which the abundance fitness is -0.351 ± 0.29.

RDEMEEWSASEASLFEEALEKYGKDFNDIRQDFLPWKSLTSIIAYYYMWKTTD [E44A]: the abundance fitness was -0.477 ± 0.1.

In the case of RDEMEEWSASEASLFEHALEKYGKDFNDIRQDFLPWKSLTSIIEYYYMWKTTD [E17H], the abundance fitness is -0.737 ± 0.12.

With RDEMEEWSASEASLFEVALEKYGKDFNDIRQDFLPWKSLTSIIEYYYMWKTTD [E17V], the abundance fitness is -0.584 ± 0.14.

With RDEMEEWSASEASLREEALEKYGKDFNDIRQDFLPWKSLTSIIEYYYMWKTTD [F15R], the abundance fitness was -0.485 ± 0.1.

With RDEMEEWSASEASLFEEALEKKGKDFNDIRQDFLPWKSLTSIIEYYYMWKTTD [Y22K], the abundance fitness was -0.72 ± 0.17.

RDEMEEWSASEASLFEEALCKYGKDFNDIRQDFLPWKSLTSIIEYYYMWKTTD [E20C]: the abundance fitness was -0.682 ± 0.2.

RDEMEEWSASEASQFEEALEKYGKDFNDIRQDFLPWKSLTSIIEYYYMWKTTD [L14Q]: the abundance fitness is -0.68 ± 0.15.

As for RDEMEEWSASEASDFEEALEKYGKDFNDIRQDFLPWKSLTSIIEYYYMWKTTD [L14D], the abundance fitness was -0.723 ± 0.099.

On to RDEMEEWSAAEASLFEEALEKYGKDFNDIRQDFLPWKSLTSIIEYYYMWKTTD [S10A], for which the abundance fitness was -0.154 ± 0.087.

Regarding RDEMEEWSASEASLFEEALEKYGKDFNDIRQDFLPWKSTTSIIEYYYMWKTTD [L39T], the abundance fitness is -0.389 ± 0.19.

For RDEMEEWSASEASLFEEALEKYGKDFNDIRQDFLPWKSETSIIEYYYMWKTTD [L39E], the abundance fitness was -0.865 ± 0.34.

The next series covers variants of B2. The description is as above. The conditions noted are these: Homo sapiens.
Turning to RRRVRAILPYTKVPDTDEISFLKGDMFHVHNELEDGWMWVTNLRTDEQGLIVEDLVEEVGR [I28H], the abundance fitness was -0.069 ± 0.022.

As for RRRVRAILTYTKVPDTDEISFLKGDMFIVHNELEDGWMWVTNLRTDEQGLIVEDLVEEVGR [P9T], the abundance fitness was -0.076 ± 0.038.

With RRRVRAILPYTKVPDTDEISFLYGDMFIVHNELEDGWMWVTNLRTDEQGLIVEDLVEEVGR [K23Y], the abundance fitness is -0.269 ± 0.023.

Turning to RRRVRAILPYTKVPDTDEISFLKGDMFIVHNELEVGWMWVTNLRTDEQGLIVEDLVEEVGR [D35V], the abundance fitness is -0.392 ± 0.036.

Turning to RRRVRAILPYTKVPDTDEISFLKDDMFIVHNELEDGWMWVTNLRTDEQGLIVEDLVEEVGR [G24D], the abundance fitness is -0.07 ± 0.031.

Turning to RRRVRAILPYTKVPDTDEISFLKGDMFIVHNVLEDGWMWVTNLRTDEQGLIVEDLVEEVGR [E32V], the abundance fitness is -0.018 ± 0.026.

Take RRRVRAILPYTKVPDTDEISFLKGDMFIVHNILEDGWMWVTNLRTDEQGLIVEDLVEEVGR [E32I]: the abundance fitness came to 0.031 ± 0.03.

As to RRRVRAILPYTKVPDTDEISFLKGDMFIVHNELEDGWMWVTNLRTDEKGLIVEDLVEEVGR [Q48K], the abundance fitness was 0.015 ± 0.054.

On to RRRVRAILPYTKVPDTDEISFLKGDMFIVHNELEDGWMWVTNLRTDESGLIVEDLVEEVGR [Q48S], for which the abundance fitness was -0.022 ± 0.025.

For the variant RRRCRAILPYTKVPDTDEISFLKGDMFIVHNELEDGWMWVTNLRTDEQGLIVEDLVEEVGR [V4C], the abundance fitness was -0.465 ± 0.023.

Consider RRRNRAILPYTKVPDTDEISFLKGDMFIVHNELEDGWMWVTNLRTDEQGLIVEDLVEEVGR [V4N], for which the abundance fitness is -0.865 ± 0.033.

Regarding RHRVRAILPYTKVPDTDEISFLKGDMFIVHNELEDGWMWVTNLRTDEQGLIVEDLVEEVGR [R2H], the abundance fitness was -0.183 ± 0.038.

Take RWRVRAILPYTKVPDTDEISFLKGDMFIVHNELEDGWMWVTNLRTDEQGLIVEDLVEEVGR [R2W]: the abundance fitness is -0.371 ± 0.055.

Consider RGRVRAILPYTKVPDTDEISFLKGDMFIVHNELEDGWMWVTNLRTDEQGLIVEDLVEEVGR [R2G], for which the abundance fitness is -0.241 ± 0.028.

For the variant RRVVRAILPYTKVPDTDEISFLKGDMFIVHNELEDGWMWVTNLRTDEQGLIVEDLVEEVGR [R3V], the abundance fitness was -0.1 ± 0.028.

On to RRRVRAILPYTKVPDTDEISFLKGDMFICHNELEDGWMWVTNLRTDEQGLIVEDLVEEVGR [V29C], for which the abundance fitness was -0.363 ± 0.029.

RRRVRAILPYTKVPDTDEISFLKGDMFIVHNELEDGWMWVTNLRTDEQGLIVEDLVEEVAR [G60A]: the abundance fitness is -0.071 ± 0.12.

RRRVRAILPYTKVPDTDEISFLKGDMFIVHNELEDGWMWVTNLRTDTQGLIVEDLVEEVGR [E47T]: the abundance fitness is -0.263 ± 0.031.

On to RRRVRAILPYTKVPDTDEISFLKGDMFIVHNELEDGRMWVTNLRTDEQGLIVEDLVEEVGR [W37R], for which the abundance fitness stood at 0.088 ± 0.021.

On to RRRVRAILPYTKVPDTDEISFLKGDMFIVHNELEDGWMWVTNLHTDEQGLIVEDLVEEVGR [R44H], for which the abundance fitness is -0.542 ± 0.039.

Consider RRRVRAILPYTKVPDTDEISFLKGDMFIVHNELEDGWMWVTNLLTDEQGLIVEDLVEEVGR [R44L], for which the abundance fitness is -0.905 ± 0.052.

As for RRRVRAILPYTKVPDTDEISFLKGDMFIVHNELEDGWMWVTNLRTDEQGLIVEDLVFEVGR [E57F], the abundance fitness is -0.527 ± 0.049.

Consider RRRVRAILPYTKVPDTDEISFLKGDMFIVHNELEDGWMWVTLLRTDEQGLIVEDLVEEVGR [N42L], for which the abundance fitness was -0.296 ± 0.034.

With RRRVRAILPYTKVPDTDEISFLKGDMFIVHNELEDGWMWVTNLRTDEQGLIVEDLVEEVGN [R61N], the abundance fitness amounted to 0.02 ± 0.033.

As for RRRVRAILPYTKVPDTDEISFLKGDMFIVHNELEDGWMWVTNLRTDEQGLIVEDLVEEVGY [R61Y], the abundance fitness is -0.076 ± 0.031.

For RRRVRAILPYTKVPDTDEISFLKGDMFIVHNELEDGWMWVFNLRTDEQGLIVEDLVEEVGR [T41F], the abundance fitness is -0.88 ± 0.05.

Take RRRVRAILPYTKVPDTDEISFLKGDMFIVHNELEDGWMWVTNLRTDEQGLIVEDLVESVGR [E58S]: the abundance fitness was -0.064 ± 0.026.

In the case of RRRVRAILPYTKVPDTDEISFLKGDMFIVHNELEDGWMWVTNLRTDEQGLWVEDLVEEVGR [I51W], the abundance fitness was -0.826 ± 0.072.

As for RRRVRAILPYTKVPDTDEISFLKGDMFIVHNELEDGWMWVTNLRTDEQGLIVEDLCEEVGR [V56C], the abundance fitness is -0.126 ± 0.028.

As for RRRVRAIVPYTKVPDTDEISFLKGDMFIVHNELEDGWMWVTNLRTDEQGLIVEDLVEEVGR [L8V], the abundance fitness was -0.039 ± 0.027.

In the case of RRRVRAIWPYTKVPDTDEISFLKGDMFIVHNELEDGWMWVTNLRTDEQGLIVEDLVEEVGR [L8W], the abundance fitness was -0.194 ± 0.043.

In the case of RRRVRAIQPYTKVPDTDEISFLKGDMFIVHNELEDGWMWVTNLRTDEQGLIVEDLVEEVGR [L8Q], the abundance fitness was -0.052 ± 0.058.

Consider RRRVRAILPYTKVPDTDEISFLKGDMFIVHNELEDGWMWVTNDRTDEQGLIVEDLVEEVGR [L43D], for which the abundance fitness is -0.422 ± 0.04.
